Test results reported in article PMC12732451, “Functional Coupling of Calcium-Sensing Receptor and Polycystin-2 in Renal Epithelial Cells: Physiological Role and Potential Therapeutic Target in Polycystic Kidney Disease” (International Journal of Molecular Sciences, 2025).

Target: T1, Polycystin 2 (PC2), human, endogenous in PTEC (human (endogenous in PTEC), UniProt Q13563 1-968)
T1 construct: Polycystin 2 (PC2), encoded by the PKD2 gene, human, endogenous in PTEC; no construct, no residues stated; Endogenous protein, immunoprecipitated with anti-Polycystin-2 antibodies (Santa Cruz)
T1 sequence (looked up): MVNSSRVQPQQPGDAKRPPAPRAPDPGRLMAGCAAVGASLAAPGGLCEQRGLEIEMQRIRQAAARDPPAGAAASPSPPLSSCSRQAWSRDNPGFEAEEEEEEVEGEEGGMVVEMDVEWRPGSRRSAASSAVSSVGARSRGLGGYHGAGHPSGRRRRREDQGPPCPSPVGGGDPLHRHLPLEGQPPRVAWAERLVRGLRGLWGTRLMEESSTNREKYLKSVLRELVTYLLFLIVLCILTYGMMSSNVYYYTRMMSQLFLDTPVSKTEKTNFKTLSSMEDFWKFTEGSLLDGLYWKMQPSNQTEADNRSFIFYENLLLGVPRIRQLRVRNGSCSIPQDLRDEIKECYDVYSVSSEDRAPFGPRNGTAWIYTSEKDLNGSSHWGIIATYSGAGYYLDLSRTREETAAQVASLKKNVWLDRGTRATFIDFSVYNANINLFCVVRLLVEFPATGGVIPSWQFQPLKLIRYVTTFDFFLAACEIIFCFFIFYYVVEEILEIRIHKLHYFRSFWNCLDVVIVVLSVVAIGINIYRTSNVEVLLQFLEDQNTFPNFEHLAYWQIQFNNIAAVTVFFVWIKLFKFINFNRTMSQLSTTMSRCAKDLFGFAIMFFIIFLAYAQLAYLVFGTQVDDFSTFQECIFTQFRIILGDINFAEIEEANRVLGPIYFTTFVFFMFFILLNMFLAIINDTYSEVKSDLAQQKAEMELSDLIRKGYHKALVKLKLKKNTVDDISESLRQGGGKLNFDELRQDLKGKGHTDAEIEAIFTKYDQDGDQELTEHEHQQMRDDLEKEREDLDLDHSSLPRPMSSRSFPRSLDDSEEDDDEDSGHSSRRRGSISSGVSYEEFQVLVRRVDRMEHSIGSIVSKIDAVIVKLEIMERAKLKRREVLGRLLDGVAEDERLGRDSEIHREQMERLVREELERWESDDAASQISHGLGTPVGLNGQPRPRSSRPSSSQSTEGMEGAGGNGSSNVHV
Experiment: co-IP; PTEC wt and PC1KD (PKD1 knocked down) lysates (1% Triton X-100, 150 mM NaCl, 25 mM Hepes pH 7.4); anti-PC2 antibodies coupled to protein A-Sepharose, overnight; immunoblot with anti-CaSR and anti-PC2
Conditions: partners not purified

B1: Calcium Sensing Receptor (CaSR), human, endogenous in PTEC (receptor, human (endogenous in PTEC), UniProt P41180 20-1078, looked up)
chain: YGPDQRAQKKGDIILGGLFPIHFGVAAKDQDLKSRPESVECIRYNFRGFRWLQAMIFAIEEINSSPALLPNLTLGYRIFDTCNTVSKALEATLSFVAQNKIDSLNLDEFCNCSEHIPSTIAVVGATGSGVSTAVANLLGLFYIPQVSYASSSRLLSNKNQFKSFLRTIPNDEHQATAMADIIEYFRWNWVGTIAADDDYGRPGIEKFREEAEERDICIDFSELISQYSDEEEIQHVVEVIQNSTAKVIVVFSSGPDLEPLIKEIVRRNITGKIWLASEAWASSSLIAMPQYFHVVGGTIGFALKAGQIPGFREFLKKVHPRKSVHNGFAKEFWEETFNCHLQEGAKGPLPVDTFLRGHEESGDRFSNSSTAFRPLCTGDENISSVETPYIDYTHLRISYNVYLAVYSIAHALQDIYTCLPGRGLFTNGSCADIKKVEAWQVLKHLRHLNFTNNMGEQVTFDECGDLVGNYSIINWHLSPEDGSIVFKEVGYYNVYAKKGERLFINEEKILWSGFSREVPFSNCSRDCLAGTRKGIIEGEPTCCFECVECPDGEYSDETDASACNKCPDDFWSNENHTSCIAKEIEFLSWTEPFGIALTLFAVLGIFLTAFVLGVFIKFRNTPIVKATNRELSYLLLFSLLCCFSSSLFFIGEPQDWTCRLRQPAFGISFVLCISCILVKTNRVLLVFEAKIPTSFHRKWWGLNLQFLLVFLCTFMQIVICVIWLYTAPPSSYRNQELEDEIIFITCHEGSLMALGFLIGYTCLLAAICFFFAFKSRKLPENFNEAKFITFSMLIFFIVWISFIPAYASTYGKFVSAVEVIAILAASFGLLACIFFNKIYIILFKPSRNTIEEVRCSTAAHAFKVAARATLRRSNVSRKRSSSLGGSTGSTPSSSISSKSNSEDPFPQPERQKQQQPLALTQQEQQQQPLTLPQQQRSQQQPRCKQKVIFGSGTVTFSLSFDEPQKNAMAHRNSTHQNSLEAQKSSDTLTRHEPLLPLQCGETDLDLTVQETGLQGPVGGDQRPEVEDPEELSPALVVSSSQSFVISGGGSTVTENVVNS
notes: Calcium sensing receptor (CaSR), human, endogenous in PTEC; no construct, no residues stated; Endogenous protein, detected with a monoclonal anti-CaSR antibody (Sigma C0493); also called extracellular calcium sensing receptor
amount of CaSR immunoprecipitated with PC2 in PC1KD cells relative to wt (ratio CaSR/PC2): 1.34 fold (wt = 1)
